Assay [1] has as its target T1, recombinant human AXL extracellular domain, C-terminally His8-tagged (rhAXL-ECD) (human, UniProt P30530 26-451).
T1 construct: Made in CHO cells; also called (rh)AXL-ECD His8; human AXL ECD
T1 sequence: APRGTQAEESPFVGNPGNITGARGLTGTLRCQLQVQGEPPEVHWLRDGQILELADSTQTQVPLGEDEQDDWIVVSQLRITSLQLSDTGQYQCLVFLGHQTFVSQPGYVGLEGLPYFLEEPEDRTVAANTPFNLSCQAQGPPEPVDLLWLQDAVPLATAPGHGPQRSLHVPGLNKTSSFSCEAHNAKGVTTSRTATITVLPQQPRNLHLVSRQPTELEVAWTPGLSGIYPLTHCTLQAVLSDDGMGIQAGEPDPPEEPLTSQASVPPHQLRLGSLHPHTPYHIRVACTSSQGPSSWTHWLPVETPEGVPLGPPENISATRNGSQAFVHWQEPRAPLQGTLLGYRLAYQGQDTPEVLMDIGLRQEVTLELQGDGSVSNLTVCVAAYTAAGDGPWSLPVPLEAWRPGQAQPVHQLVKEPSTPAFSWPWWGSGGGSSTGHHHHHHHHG
In words: SPR Biacore T200, mAb captured on anti-Fc, AXL ECD flowed, single-cycle kinetics. Here is the method:
(§1) Surface plasmon resonance. For murine mAbs, binding to human and cynomolgus AXL ECD was assessed using a Biacore T200 instrument. Briefly, either anti-mouse or anti-human Fc antibody was immobilized on a research-grade CM5 series S sensor chip using amine coupling in acetate buffer. Murine or recombinant chimeric murine-human mAbs (mouse VH/VL; human constant regions) were captured, then recombinant human or cyno AXL ECD was flowed over the surface at different concentration ranges (0.1-500 nM) depending on the antibody. The running buffer was PBS/Tween-20 and the flow rate 100 uL/min. All binding studies were performed at 25° C. Surfaces were regenerated using 10 mM glycine, pH 1.5.

The target in assay [2] is T2, recombinant cynomolgus AXL extracellular domain (cynomolgus).
T2 construct: range 1-449; also called Cyno AXL; cyno AXL ECD
The assay is described as above. Here is the method: as §1

Assay [3] deals with T1, recombinant human AXL extracellular …. In words: ELISA on coated AXL ECD (100 ng/well), HRP-protein A. The protocol: (§2) ELISA. ELISAs against human, cyno and mouse AXL ECDs were conducted by immobilizing 100 ng of each protein in wells of Nunc MaxiSorp microplates overnight. Human AXL (aa 1-451) and cyno AXL (aa 1-449) were produced recombinantly as described in Example 10. Mouse AXL was purchased from Sino (cat. 51026-M08H). The next day, plates were blocked with 5% (w/v) dried milk in PBS. Murine mAbs (either hybridoma- or recombinantly-produced) or VHH-Fcs were diluted in PBS containing 1% BSA and 0.1% Tween-20 and added to wells for 2 hours at room temperature. Wells were washed 5× with PBS containing 0.1% Tween-20, then HRP-labeled protein A (diluted 1:1000 in PBS containing 1% BSA and 0.1% Tween™-20) was added to wells for 1 hour at room temperature. Wells were washed again 5× with PBS/0.1% Tween-20 and developed using TMB substrate. Absorbance was measured at 450 nm. As a positive control for mouse AXL binding, a commercial anti-mouse AXL mAb (clone 175128, R&D Systems MAB8541, rat IgG2A) was used and detected with donkey […] secondary antibody.
On the technique in general: ELISA stands for enzyme-linked immunosorbent assay.

Assay [4] has as its target T3, mouse AXL extracellular domain (Sino cat. 51026-M08H) (mouse, UniProt Q00993 19-445).
T3 construct: extracellular domain; Bought protein; also called mouse AXL ECD
T3 sequence (looked up): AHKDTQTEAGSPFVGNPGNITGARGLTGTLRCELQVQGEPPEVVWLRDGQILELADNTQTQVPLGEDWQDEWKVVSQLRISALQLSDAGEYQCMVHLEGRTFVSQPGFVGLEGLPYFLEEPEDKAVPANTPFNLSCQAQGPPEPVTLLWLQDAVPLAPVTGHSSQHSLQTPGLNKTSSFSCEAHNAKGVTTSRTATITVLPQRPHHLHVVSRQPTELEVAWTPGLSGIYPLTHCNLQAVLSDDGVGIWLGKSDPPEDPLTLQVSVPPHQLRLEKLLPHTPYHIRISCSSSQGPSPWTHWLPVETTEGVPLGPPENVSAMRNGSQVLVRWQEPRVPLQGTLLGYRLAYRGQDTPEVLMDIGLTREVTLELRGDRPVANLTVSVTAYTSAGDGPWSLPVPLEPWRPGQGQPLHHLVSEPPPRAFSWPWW
In words: ELISA on coated mouse AXL ECD (100 ng/well). The protocol:
as §2

Assay [5] concerns the target T1, recombinant human AXL extracellular …. In words: ELISA on coated AXL ECD (100 ng/well), VHH-Fc, HRP-protein A. The protocol:
as §2

The target of assay [6] is T3, mouse AXL extracellular domain (Sino …). In words: ELISA on coated mouse AXL ECD (100 ng/well), VHH-Fc. The protocol:
as §2

B1: hFC-F107-10G1 (antibody, human IgG1, kappa, V domains shown)
VH: EVNLVESGGGVVKPGASLKLSCEASGFTFSNYGMSWVRQTSDKRLEWVASISGGGGRTYYLDNVKGRFIISRENAKNTLYLQMSSLKSEDTALFYCARGARASYFAMDYWGQGSSVTVSS
VL: VIVMTQSHKFMSTSVGDRVSITCKASQDVTTAVAWYQQKPGQSPKLLIYWASTRHTGVPDRFTGSGSGTDYSLTISNVQTEDLAFYYCQQHFTTPLTFGAGTKLELKR
notes: Chimeric mAb, human IgG1 / human kappa constant regions; also called mAb F107-10G1
What is called Kd is a measure of binding affinity in units of concentration. As usually defined, the kon is the second-order rate constant of association. What is called koff is the first-order rate constant of dissociation. The EC50 is the concentration that produces a half-maximal response. On to B1, for which, in assay [1], the Kd was 500 pM and the association rate constant (kon) was found to be 1.1e+06 M⁻¹ s⁻¹. Further, in assay [2], the equilibrium dissociation constant (Kd) is 500 pM, the koff was 0.00043 s⁻¹ and the kon is 820000 M⁻¹ s⁻¹. Moreover, in assay [3], the EC50 came out at 2000 pM. Further, the binding result in assay [4] is reported as “no binding”.

B2: NRC-sdAb001-Fc (VHH-human IgG1 Fc fusion) (Fc fusion)
chain: QVKLEESGGGLVQAGGSLRLSCTASASISSFDIMGWYRQAPGKQRELVAAITTLDIANYRDSVKGRFTISRDNAKNTVYLQMDSLKPEDTARYHCAAFQSDQNYWGQGTQVTVSS
notes: VHH fused N-terminally to human IgG1 Fc, made in HEK293 cells; also called NRC-sdAb0001-Fc; NRC-sdAb001-hIgG1; not shown: human IgG1 Fc
Take B2: the EC50 in assay [5] came to 1000 pM. For the same molecule, the binding result in assay [6] was “no binding”.
